The results in this text go back to PMC5065529, “Wnt Signalosome Assembly by DEP Domain Swapping of Dishevelled” (Molecular Cell, 2016).

Positions count from the first letter of the chain named. Where “and” joins values, the source holds several entries; their conditions need not be identical. Identical values can stand only once.

Broadly, the stoichiometry N is the number of molecules, sites or subunits per partner or assembly.

Series [1] has as its target DEP_(414–507)-GFP, minimal DEP domain of DVL2 (UniProt O14641). As to the kind of experiment: FZD5-dependent PM recruitment of DEP-GFP (cell scoring). Conditions: 100 cells scored in each case, label printed as 'T526A:S529', new residue at 529 not given, read off a plot.
Series [2] deals with the molecule itself. Put plainly: SEC-MALS; purified Lip-DEP_(416–511), WT or mutant, unfractionated or purified fractions; PBS, GE Superdex S-200 10/300 analytical column.

Regarding “SNAP-FZD5 (Frizzled 5), wild type (from UniProt Q13467) T526A:S529”, in series [1] (parent: est. 52), the other: % of cells with strong PM recruitment was 3 % of cells. For the same molecule, in series [1] (parent: est. 88), the other: % of cells with strong or weak PM recruitment (top of weak segment) is 24 % of cells.

B1: Lip-DEP_(416–511) L445E (domain or fragment, human, UniProt O14641 416-511, looked up)
chain: GLSVHTDMASVTKAMAAPESGLEVRDRMWEKITIPNAFLGSDVVDWLYHHVEGFPERREARKYASGLLKAGLIRHTVNKITFSEQCYYVFGDLSGG
notes: Dishevelled 2 (DVL2), human, DEP domain, residues 416-511; source: E. coli BL21-CodonPlus(DE3)-RIL, purified
For the molecule B1, in series [2], the binding result is “binds”.

B2: Lip-DEP_(416–511), lipoyl-tagged DEP domain of DVL2 (domain or fragment, human, UniProt O14641 416-511, looked up)
chain: B1 chain with E30L
notes: Dishevelled 2 (DVL2), human, DEP domain, residues 416-511; Purified essentially as in Fiedler et al., 2011; details in the Supplemental Information; also called purified DEP; wt; source: E. coli BL21-CodonPlus(DE3)-RIL, purified (SEC)
In the case of B2, in series [2], the “stoichiometry N” value is 2 and 4.

B3: Lip-DEP_(416–511) MLI > AAA (domain or fragment, human, UniProt O14641 416-511, looked up)
chain: B1 chain with M28A, E30A, I32A
notes: Dishevelled 2 (DVL2), human, DEP domain, residues 416-511; the hydrophobic triad M443, L445, I447 changed to alanines; also called triple-alanine mutation of the hydrophobic triad; source: E. coli BL21-CodonPlus(DE3)-RIL, purified
For the molecule B3, the binding result in series [2] is “binds”.
